Here are results for one substance from PMC6096475, “Structure of the GH9 glucosidase/glucosaminidase from Vibrio cholerae” (Acta Crystallographica. Section F, Structural Biology …, 2018).

In this data set the test system is Cc1cc(=O)oc2cc(O[C@@H]3O[C@H](CO)[C@@H](O)[C@H](O)[C@H]3O)ccc12. The data set can be described thus: purified protein. As to conditions: 20 mM sodium phosphate pH 6.5, 1 µM enzyme, temperature not stated.

Broadly, the Km is the substrate concentration at which the rate is half of its maximum. As a reminder, the kcat is the number of substrate molecules converted per active site and unit of time at saturation. For the substance “VC0615 (Vibrio cholerae O1 biovar El Tor str. N16961)”, the Km came to 768 µM and the catalytic constant (kcat) was found to be 0.0217 s⁻¹.
